Biological target: the molecule itself
Assay: crystal structure; homodimer in crystals grown at pH 6.5 with 7-10% PEG 3350, 15-20% 2-methyl-2,4-pentanediol and 2 mM cAMP; cAMP-bound protein

B1: Catabolite Activator Protein (CAP) of Escherichia coli, wild-type (natural protein, UniProt P0ACJ8 1-210, looked up)
chain: MVLGKPQTDPTLEWFLSHCHIHKYPSKSTLIHQGEKAETLYYIVKGSVAVLIKDEEGKEMILSYLNQGDFIGELGLFEEGQERSAWVRAKTACEVAEISYKKFRQLIQVNPDILMRLSAQMARRLQVTSEKVGNLAFLDVTGRIAQTLLNLAKQPDAMTHPDGMQIKITRQEIGQIVGCSRETVGRILKMLEDQNLISAHGKTIVVYGTR
notes: also called CAP wild-type
B1: binds.

B2: CAP V132A (natural protein, Escherichia coli, UniProt P0ACJ8 1-210, looked up)
chain: MVLGKPQTDPTLEWFLSHCHIHKYPSKSTLIHQGEKAETLYYIVKGSVAVLIKDEEGKEMILSYLNQGDFIGELGLFEEGQERSAWVRAKTACEVAEISYKKFRQLIQVNPDILMRLSAQMARRLQVTSEKAGNLAFLDVTGRIAQTLLNLAKQPDAMTHPDGMQIKITRQEIGQIVGCSRETVGRILKMLEDQNLISAHGKTIVVYGTR
B2: binds.

B3: CAP V132L (natural protein, Escherichia coli, UniProt P0ACJ8 1-210, looked up)
chain: MVLGKPQTDPTLEWFLSHCHIHKYPSKSTLIHQGEKAETLYYIVKGSVAVLIKDEEGKEMILSYLNQGDFIGELGLFEEGQERSAWVRAKTACEVAEISYKKFRQLIQVNPDILMRLSAQMARRLQVTSEKLGNLAFLDVTGRIAQTLLNLAKQPDAMTHPDGMQIKITRQEIGQIVGCSRETVGRILKMLEDQNLISAHGKTIVVYGTR
B3: binds.

B4: CAP H160L (natural protein, Escherichia coli, UniProt P0ACJ8 1-210, looked up)
chain: MVLGKPQTDPTLEWFLSHCHIHKYPSKSTLIHQGEKAETLYYIVKGSVAVLIKDEEGKEMILSYLNQGDFIGELGLFEEGQERSAWVRAKTACEVAEISYKKFRQLIQVNPDILMRLSAQMARRLQVTSEKVGNLAFLDVTGRIAQTLLNLAKQPDAMTLPDGMQIKITRQEIGQIVGCSRETVGRILKMLEDQNLISAHGKTIVVYGTR
B4: binds.

B5: CAP V140L (natural protein, Escherichia coli, UniProt P0ACJ8 1-210, looked up)
chain: MVLGKPQTDPTLEWFLSHCHIHKYPSKSTLIHQGEKAETLYYIVKGSVAVLIKDEEGKEMILSYLNQGDFIGELGLFEEGQERSAWVRAKTACEVAEISYKKFRQLIQVNPDILMRLSAQMARRLQVTSEKVGNLAFLDLTGRIAQTLLNLAKQPDAMTHPDGMQIKITRQEIGQIVGCSRETVGRILKMLEDQNLISAHGKTIVVYGTR
B5: binds.

B6: CAP V140A (natural protein, Escherichia coli, UniProt P0ACJ8 1-210, looked up)
chain: MVLGKPQTDPTLEWFLSHCHIHKYPSKSTLIHQGEKAETLYYIVKGSVAVLIKDEEGKEMILSYLNQGDFIGELGLFEEGQERSAWVRAKTACEVAEISYKKFRQLIQVNPDILMRLSAQMARRLQVTSEKVGNLAFLDATGRIAQTLLNLAKQPDAMTHPDGMQIKITRQEIGQIVGCSRETVGRILKMLEDQNLISAHGKTIVVYGTR
B6: binds.
